Source: the supplement of paper PMC9233669
Fewer inactive variants are shown than the library holds.

How the values were obtained:
biotinyl-Phe-oxazolone = test: self-aminoacylation, catalytic enhancement (BFO) (fold over background); higher = more active; k-Seq, kA / k0A0; sequences stand for … in GGGAAUGGAUCCACAUCUACGAAUUC…UUCACUGCAGACUUGACGAAGCUG
Method in brief: (§1)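 Mutagenized RNA pools with a 21-nt variable region (0.43 μM) were reacted with each biotinyl-aminoacyl-oxazolone at 2–1250 μM for 90 minutes at room temperature, in 50 μL HEPES/NaCl/KCl/MgCl2/CaCl2 buffer containing 5% acetonitrile at pH 6.9–7.0. RNA captured on streptavidin was quantified by triplicate qPCR and by Illumina sequencing. The fraction reacted for each sequence was fit to a pseudo-first-order model with bootstrapping, and catalytic enhancement is the median kA divided by the uncatalyzed rate, taken as the low-activity peak of a bimodal Gaussian fit.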

biotinyl-Trp-oxazolone = test: self-aminoacylation, catalytic enhancement (BWO) (fold over background); higher = more active; k-Seq, kA / k0A0; sequences stand for … in GGGAAUGGAUCCACAUCUACGAAUUC…UUCACUGCAGACUUGACGAAGCUG
Method in brief: as §1

biotinyl-Met-oxazolone = test: self-aminoacylation, catalytic enhancement (BMO) (fold over background); higher = more active; k-Seq, kA / k0A0; sequences stand for … in GGGAAUGGAUCCACAUCUACGAAUUC…UUCACUGCAGACUUGACGAAGCUG
Method in brief: as §1

biotinyl-Ile-oxazolone = test: self-aminoacylation, catalytic enhancement (BIO) (fold over background); higher = more active; k-Seq, kA / k0A0; sequences stand for … in GGGAAUGGAUCCACAUCUACGAAUUC…UUCACUGCAGACUUGACGAAGCUG
Method in brief: as §1

biotinyl-Val-oxazolone = test: self-aminoacylation, catalytic enhancement (BVO) (fold over background); higher = more active; k-Seq, kA / k0A0; sequences stand for … in GGGAAUGGAUCCACAUCUACGAAUUC…UUCACUGCAGACUUGACGAAGCUG
Method in brief: as §1

biotinyl-Leu-oxazolone = test: self-aminoacylation, catalytic enhancement (BLO) (fold over background); higher = more active; k-Seq, kA / k0A0; sequences stand for … in GGGAAUGGAUCCACAUCUACGAAUUC…UUCACUGCAGACUUGACGAAGCUG
Method in brief: as §1

Sequence | self-aminoacylation (biotinyl-Phe-oxazolone) | self-aminoacylation (biotinyl-Trp-oxazolone) | self-aminoacylation (biotinyl-Met-oxazolone) | self-aminoacylation (biotinyl-Ile-oxazolone) | self-aminoacylation (biotinyl-Val-oxazolone) | self-aminoacylation (biotinyl-Leu-oxazolone)
GUCCACCUAGGUCAUCGGGUG [Fam2.2 aminoacylation ribozyme variant] | 35.1 | 6.85 | 4.1 | 4.43 | 4.67 | 4.46
GUGACCCUGGUCAUCGAGUGA [Fam2.1 aminoacylation ribozyme variant] | 144 | 17.8 | 21.7 | 7.41 | 7.42 | 19.6
GUGCUUCAAACAAUCGGUCUG [Fam1A.1 aminoacylation ribozyme variant] | 195 | 79.6 | 2.69 | 2.57 | 2.39 | 4.85
GUUAACCUAGGUCAUCGGGUG [Fam2.2 aminoacylation ribozyme variant] | 77.3 | 12.7 | 11.9 | 7.79 | 6.73 | 16.1
GUUAACCUGGUCAUCGAGUGA [Fam2.1 aminoacylation ribozyme variant] | 24.2 | 8.69 | 6.75 | 4.69 | 3.95 | 6.73
GUUACCAUGGUCAUCGAGUGA [Fam2.1 aminoacylation ribozyme variant] | 28.3 | 10.3 | 8.11 | 5.01 | 5.22 | 9.59
GUUACCCUGCUCAUCGAGUGA [Fam2.1 aminoacylation ribozyme variant] | 8.33 | 3.45 | 3.06 | 1.66 | 1.79 | 2.23
GUUACCCUGGUCAGCGAGUGA [Fam2.1 aminoacylation ribozyme variant] | 42.9 | 7.95 | 6.72 | 4.8 | 4.05 | 6.76
GUUACCCUGGUCAUCAAGUGA [Fam2.1 aminoacylation ribozyme variant] | 11 | 4.39 | 3.81 | 2.37 | 2.08 | 3.12
GUUACCCUGGUCAUCGAGUAA [Fam2.1 aminoacylation ribozyme variant] | 93.6 | 18.7 | 22.6 | 6.86 | 7.98 | 21.8
GUUACCCUGGUCAUCGAGUCA [Fam2.1 aminoacylation ribozyme variant] | 1.64 | 1.1 | 1.26 | 0.936 | 1.46 | 1.28
GUUACCCUGGUCAUCGAGUGA [Fam2.1 aminoacylation ribozyme variant] | 747 | 101 | 99 | 35.2 | 38.3 | 100
GUUACCCUGGUCAUCGAGUGC [Fam2.1 aminoacylation ribozyme variant] | 33.8 | 9.64 | 12.9 | 4.28 | 4.94 | 13
GUUACCCUGGUCAUCGAGUUA [Fam2.1 aminoacylation ribozyme variant] | 23.1 | 10 | 12 | 4.48 | 5.21 | 11.1
GUUACCCUGGUCAUCGCGUGA [Fam2.1 aminoacylation ribozyme variant] | 212 | 26.8 | 25.3 | 11.2 | 14.8 | 25.2
GUUACCCUGGUCAUCGGGUGA [Fam2.1 aminoacylation ribozyme variant] | 503 | 90.7 | 89.7 | 30.9 | 36.7 | 92.1
GUUACCCUGGUCAUGGAGUGA [Fam2.1 aminoacylation ribozyme variant] | 36.2 | 7.15 | 4.85 | 3.51 | 3.36 | 5.89
GUUACCCUGGUCGUCGAGUGA [Fam2.1 aminoacylation ribozyme variant] | 9.01 | 2.24 | 2.13 | 1.5 | 1.6 | 1.9
GUUACCCUGGUCUUCGAGUGA [Fam2.1 aminoacylation ribozyme variant] | 50.7 | 10.1 | 8.47 | 4.45 | 5.01 | 8.79
GUUACCCUGGUGAUCGAGUGA [Fam2.1 aminoacylation ribozyme variant] | 34.8 | 8.86 | 6.75 | 3.37 | 3.33 | 7.43
GUUACGCUGGUCAUCGAGUGA [Fam2.1 aminoacylation ribozyme variant] | 59.2 | 10.6 | 7.2 | 5.57 | 4.86 | 8.34
GUUCAACUAGGUCAUCGGGUG [Fam2.2 aminoacylation ribozyme variant] | 42.6 | 6.75 | 5.04 | 4.28 | 4.16 | 6.94
GUUCACCUAAGUCAUCGGGUG [Fam2.2 aminoacylation ribozyme variant] | 51.4 | 7.87 | 7.53 | 5.38 | 5.4 | 9.78
GUUCACCUAGGACAUCGGGUG [Fam2.2 aminoacylation ribozyme variant] | 16.3 | 5.67 | 3.24 | 3.61 | 3.56 | 4.61
GUUCACCUAGGUCAUCGGUUG [Fam2.2 aminoacylation ribozyme variant] | 2.93 | 1.41 | 1.09 | 1.17 | 1.11 | 1.38
GUUCACCUAGGUCUUCGGGUG [Fam2.2 aminoacylation ribozyme variant] | 33.8 | 5.22 | 4.89 | 3.83 | 4.05 | 5.73

Sequence | self-aminoacylation (biotinyl-Phe-oxazolone) | self-aminoacylation (biotinyl-Trp-oxazolone) | self-aminoacylation (biotinyl-Met-oxazolone) | self-aminoacylation (biotinyl-Ile-oxazolone) | self-aminoacylation (biotinyl-Val-oxazolone) | self-aminoacylation (biotinyl-Leu-oxazolone)
GUUCACCUAGGUUAUCGGGUG [Fam2.2 aminoacylation ribozyme variant] | 34 | 5.35 | 4.84 | 3.41 | 3.44 | 4.08
GUUCACCUAGUUCAUCGGGUG [Fam2.2 aminoacylation ribozyme variant] | 15.4 | 4.15 | 2.66 | 2.79 | 2.9 | 2.37
GUUCACCUCGGUCAUCGGGUG [Fam2.2 aminoacylation ribozyme variant] | 28.6 | 3.77 | 4.1 | 3.61 | 4.29 | 4.52
GUUCACCUGGGUCAUCGGGUG [Fam2.2 aminoacylation ribozyme variant] | 39.4 | 8.32 | 5.48 | 4.47 | 5.58 | 5.35
GUUCCCCUGGUCAUCGAGUGA [Fam2.1 aminoacylation ribozyme variant] | 43.4 | 7.5 | 5.84 | 3.35 | 3.82 | 6.48
GUUGACCUAGGUCAUCGGGUG [Fam2.2 aminoacylation ribozyme variant] | 20 | 5.59 | 3.52 | 4.11 | 3.67 | 5.05
GUUUACCUAGGUCAUCGGGUG [Fam2.2 aminoacylation ribozyme variant] | 201 | 23.9 | 29 | 16.2 | 14.1 | 39.7
UAGUUAGCUAAUAGUCGCAAG [Fam3.1 aminoacylation ribozyme variant] | 2.37 | 1.11 | 2.06 | 1.72 | 1.52 | 1.8
UAGUUUACUAAUAGUCGCAAG [Fam3.1 aminoacylation ribozyme variant] | 2.86 | 1.65 | 1.41 | 1.45 | 1.48 | 1.36
UAGUUUGCCAAUAGUCGCAAG [Fam3.1 aminoacylation ribozyme variant] | 2.96 | 1.99 | 1.77 | 1.61 | 1.61 | 1.87
UAGUUUGCUAAGAGUCGCAAG [Fam3.1 aminoacylation ribozyme variant] | 1.77 | 1.22 | 1.1 | 1.12 | 1.18 | 0.952
UAGUUUGCUAAUAAUCGCAAG [Fam3.1 aminoacylation ribozyme variant] | 1.77 | 0.875 | 1.04 | 1.11 | 1.12 | 0.887
UAGUUUGCUAAUAGUCACAAG [Fam3.1 aminoacylation ribozyme variant] | 5.1 | 2.38 | 1.51 | 1.41 | 1.31 | 1.76
UAGUUUGCUAAUCGUCGCAAG [Fam3.1 aminoacylation ribozyme variant] | 1.65 | 1.59 | 1.51 | 1.62 | 1.31 | 1.11
UAGUUUGCUAGUAGUCGCAAG [Fam3.1 aminoacylation ribozyme variant] | 1.53 | 0.854 | 1.17 | 1.09 | 0.974 | 1.1
UCACAAUUCAAGCAAUCGGUC [Fam1B.1 aminoacylation ribozyme variant] | 1.8 | 1.39 | 0.989 | 1.04 | 0.986 | 0.949
UCACACUUCAAACAAUCGGUC [Fam1B.1 aminoacylation ribozyme variant] | 89.1 | 42.8 | 1.66 | 1.34 | 1.55 | 2.25
UCACACUUCAACCAAUCGGUC [Fam1B.1 aminoacylation ribozyme variant] | 54.2 | 37.1 | 1.71 | 1.45 | 1.75 | 2.44
UCACACUUCAAGCAAUCGGAC [Fam1B.1 aminoacylation ribozyme variant] | 1.56 | 0.994 | 0.732 | 0.844 | 0.821 | 0.598
UCACACUUCAAUCAAUCGGUC [Fam1B.1 aminoacylation ribozyme variant] | 35.5 | 21.3 | 1.12 | 1.11 | 1.08 | 1.49
UCACACUUCCAGCAAUCGGUC [Fam1B.1 aminoacylation ribozyme variant] | 1.01 | 0.854 | 1.14 | 1.19 | 1.24 | 1.02
UCACACUUGAAGCAAUCGGUC [Fam1B.1 aminoacylation ribozyme variant] | 0.541 | 0.486 | 0.762 | 0.744 | 0.774 | 0.751
UCACACUUUAAGCAAUCGGUC [Fam1B.1 aminoacylation ribozyme variant] | 0.841 | 0.764 | 0.694 | 0.869 | 0.857 | 0.791
UCACAGUUCAAGCAAUCGGUC [Fam1B.1 aminoacylation ribozyme variant] | 4.16 | 3.12 | 1.01 | 1.05 | 0.999 | 1.16
UCUACCCUGGUCAUCGAGUGA [Fam2.1 aminoacylation ribozyme variant] | 14.6 | 12.6 | 10.4 | 5.18 | 5.79 | 9.36
